Data: PMC3336104 (Molecular Cell, 2012)

Target: Glmn, purified, His6-MBP removed (human, UniProt Q92990 1-594)
Assay: SEC

Sequence of Glmn, purified, His6-MBP removed (Q92990 whole entry): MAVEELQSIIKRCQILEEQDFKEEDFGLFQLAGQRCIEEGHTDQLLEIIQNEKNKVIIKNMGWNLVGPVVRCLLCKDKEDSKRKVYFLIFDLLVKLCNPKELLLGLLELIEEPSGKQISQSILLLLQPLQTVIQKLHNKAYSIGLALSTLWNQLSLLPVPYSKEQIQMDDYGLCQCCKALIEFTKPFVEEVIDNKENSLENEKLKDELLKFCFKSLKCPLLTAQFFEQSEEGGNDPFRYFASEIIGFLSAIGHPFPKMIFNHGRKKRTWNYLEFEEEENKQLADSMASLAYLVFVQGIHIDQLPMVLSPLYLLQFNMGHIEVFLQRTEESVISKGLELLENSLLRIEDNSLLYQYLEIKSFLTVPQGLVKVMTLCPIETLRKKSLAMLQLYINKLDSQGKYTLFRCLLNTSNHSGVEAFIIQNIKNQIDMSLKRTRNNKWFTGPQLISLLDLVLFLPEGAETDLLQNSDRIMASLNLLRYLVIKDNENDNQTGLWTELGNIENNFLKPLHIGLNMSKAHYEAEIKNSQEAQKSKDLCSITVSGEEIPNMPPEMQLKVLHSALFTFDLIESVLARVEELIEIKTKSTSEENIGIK

binding result: binds
B1: Rbx1^RING, GST removed (domain or fragment)
chain: not shown
